Measured values published in publication PMC2790157.

Target: NF-kB p50 (UniProt P19838 1-433)
Experiment: EMSA

Chain of NF-kB p50 (P19838 1-433): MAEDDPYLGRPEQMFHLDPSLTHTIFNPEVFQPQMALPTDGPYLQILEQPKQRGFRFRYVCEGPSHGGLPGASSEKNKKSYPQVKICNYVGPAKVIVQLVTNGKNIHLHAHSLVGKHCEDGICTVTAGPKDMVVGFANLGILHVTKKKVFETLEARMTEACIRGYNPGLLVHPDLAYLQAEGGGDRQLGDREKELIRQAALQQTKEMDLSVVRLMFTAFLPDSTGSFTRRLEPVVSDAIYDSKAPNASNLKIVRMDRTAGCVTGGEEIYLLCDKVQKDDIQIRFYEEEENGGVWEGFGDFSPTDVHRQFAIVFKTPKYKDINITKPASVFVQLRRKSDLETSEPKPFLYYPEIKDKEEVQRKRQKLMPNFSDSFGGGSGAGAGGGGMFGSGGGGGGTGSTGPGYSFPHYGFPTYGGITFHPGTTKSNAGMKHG

Binder | binding result
NF-kB consensus (dsDNA) DNA 1: AGTTGAGGGGACTTTCCCAGGC DNA 2: GCCTGGGAAAGTCCCCTCAACT | binds
ING2 promoter putative NF-kB site (dsDNA) DNA 1: CGCCGAGGGGATCCCCACTGCT DNA 2: AGCAGTGGGGATCCCCTCGGCG | binds
